These results are taken from the supplement of paper PMC10567573.

Sequences and labels used below:
B1: ETS1 (parent)
chain: FSEPSFITESYQTLHPISSEELLS
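Note: lentivirally expressed fusions sorted by FACS into six bins by GFP to DsRed ratio, PSI derived from sequencing read proportions per bin multiplied by bin number.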

This data set covers variants of B1. The experiment in a line: protein stability index of a GFP-peptide fusion (GPS, HEK-293T) (PSI 1-6); higher = more stable. The following applies: c terminus: a fixed tail appended.
As to FSEPSFITESYYTLHPISSEELLS, the protein stability index was found to be 1.56.

FSEPSFITESYQTTHPISSEELLS: the protein stability index was found to be 2.5. Take FSEPSFITESYQTRHPISSEELLS: the protein stability index came out at 2.07. The value for FSEPSFITESYQTHHPISSEELLS was 2.35; that for FSEPSFITESYQTCHPISSEELLS was 1.93. The value for FSEPSFITESYQTYHPISSEELLS was 1.55; that for FSEPSFITESYQTGHPISSEELLS was 2.19. The value for FSEPSFITESYQTFHPISSEELLS was 1.74; that for FSEPSFITESYQTPHPISSEELLS was 2.1; that for FSEPSFITESYQTDHPISSEELLS was 2.44.

Consider FSEPSFITESYQTWHPISSEELLS, for which the protein stability index came out at 2.66.

On to FSEPSFITESYQTQHPISSEELLS, for which the protein stability index came out at 2.48.

With FSEPSFITESYQTIHPISSEELLS, the protein stability index was 1.94. Then FSEPSFITESYQTVHPISSEELLS, with 2.09; and FSEPSFITESYQTEHPISSEELLS, with 2.33. The value for FSEPSFITESYQTSHPISSEELLS was 2.44; that for FSEPSFITESYQTMHPISSEELLS was 1.88; that for FSEPSFITESYQTNHPISSEELLS was 2.08. The value for FSEPSFITESYQTKHPISSEELLS was 2.19.

For FSEPSFITESYQTAHPISSEELLS, the protein stability index came out at 2.08.

For FSEPSFITESYQSLHPISSEELLS, the protein stability index worked out at 2.35.

Regarding FSEPSFITESYQWLHPISSEELLS, the protein stability index came out at 2.54. The value for FSEPSFITESYQFLHPISSEELLS was 1.53. The value for FSEPSFITESYQKLHPISSEELLS was 1.93. Then FSEPSFITESYQYLHPISSEELLS, with 1.93; and FSEPSFITESYQVLHPISSEELLS, with 2.21. As to FSEPSFITESYQELHPISSEELLS, the protein stability index was found to be 2.07. In the case of FSEPSFITESYQILHPISSEELLS, the protein stability index was 1.93.

Take FSEPSFITESYQGLHPISSEELLS: the protein stability index worked out at 1.9.

FSEPSFITESYQMLHPISSEELLS: the protein stability index was determined as 1.28. Then FSEPSFITESYQQLHPISSEELLS, with 2.4; and FSEPSFITESYQPLHPISSEELLS, with 2.11; and FSEPSFITESYQDLHPISSEELLS, with 2.23. The value for FSEPSFITESYQLLHPISSEELLS was 1.99; that for FSEPSFITESYQCLHPISSEELLS was 1.67. For FSEPSFITESYQNLHPISSEELLS, the protein stability index stood at 1.68.

In the case of FSEPSFITESYQRLHPISSEELLS, the protein stability index worked out at 1.61.

Regarding FSEPSFITESYQALHPISSEELLS, the protein stability index amounted to 2.16. Then FSEPSFITESYQHLHPISSEELLS, with 1.62; and FSEPSFITESYQTLHPDSSEELLS, with 2.12; and FSEPSFITESYQTLHPYSSEELLS, with 2.03. As to FSEPSFITESYQTLHPVSSEELLS, the protein stability index was 2.14.

As to FSEPSFITESYQTLHPASSEELLS, the protein stability index turned out to be 2.33. For FSEPSFITESYQTLHPGSSEELLS, the protein stability index is 1.81. With FSEPSFITESYQTLHPRSSEELLS, the protein stability index is 2.59. Then FSEPSFITESYQTLHPSSSEELLS, with 2.14; and FSEPSFITESYQTLHPTSSEELLS, with 2.78; and FSEPSFITESYQTLHPPSSEELLS, with 2.34. For the variant FSEPSFITESYQTLHPLSSEELLS, the protein stability index stood at 2.45. The value for FSEPSFITESYQTLHPCSSEELLS was 1.74. The value for FSEPSFITESYQTLHPHSSEELLS was 1.76.

As for FSEPSFITESYQTLHPQSSEELLS, the protein stability index worked out at 2.31.

Take FSEPSFITESYQTLHPFSSEELLS: the protein stability index was 1.84. Then FSEPSFITESYQTLHPWSSEELLS, with 2.06. The value for FSEPSFITESYQTLHPESSEELLS was 2.39; that for FSEPSFITESYQTLHPKSSEELLS was 2.36.

Consider FSEPSFITESYQTLHPNSSEELLS, for which the protein stability index came to 2.34. The value for FSEPSFITESYQTLHPMSSEELLS was 1.78; that for FSEPSFITESYQTLWPISSEELLS was 1.67; that for FSEPSFITESYQTLYPISSEELLS was 1.51. Then FSEPSFITESYQTLCPISSEELLS, with 2.17; and FSEPSFITESYQTLVPISSEELLS, with 2.49; and FSEPSFITESYQTLAPISSEELLS, with 2.27. With FSEPSFITESYQTLQPISSEELLS, the protein stability index is 2.29. Then FSEPSFITESYQTLIPISSEELLS, with 2.03.

As to FSEPSFITESYQTLEPISSEELLS, the protein stability index is 2.12. The value for FSEPSFITESYQTLKPISSEELLS was 2.33.

For the variant FSEPSFITESYQTLNPISSEELLS, the protein stability index was determined as 1.71.

With FSEPSFITESYQTLPPISSEELLS, the protein stability index was 2.27. For FSEPSFITESYQTLMPISSEELLS, the protein stability index came out at 1.96.

FSEPSFITESYQTLSPISSEELLS: the protein stability index amounted to 1.91. The value for FSEPSFITESYQTLTPISSEELLS was 2.38.

FSEPSFITESYQTLDPISSEELLS: the protein stability index is 2.48. The value for FSEPSFITESYQTLGPISSEELLS was 1.75; that for FSEPSFITESYQTLRPISSEELLS was 2.82; that for FSEPSFITESYQTLFPISSEELLS was 1.95. The value for FSEPSFITESYQTLLPISSEELLS was 1.99; that for FSEPSFITENYQTLHPISSEELLS was 1.99; that for FSEPSFITEWYQTLHPISSEELLS was 1.5. Turning to FSEPSFITEMYQTLHPISSEELLS, the protein stability index was 2.02. The value for FSEPSFITEYYQTLHPISSEELLS was 1.74. The value for FSEPSFITEQYQTLHPISSEELLS was 2.35; that for FSEPSFITETYQTLHPISSEELLS was 2.15.

For FSEPSFITERYQTLHPISSEELLS, the protein stability index is 2.16. The value for FSEPSFITEVYQTLHPISSEELLS was 2.52; that for FSEPSFITEPYQTLHPISSEELLS was 2.62. Consider FSEPSFITESYQTLHPISSIELLS, for which the protein stability index amounted to 1.78. Then FSEPSFITESYQTLHPISSGELLS, with 1.62; and FSEPSFITESYQTLHPISSKELLS, with 1.82; and FSEPSFITESYQTLHPISSAELLS, with 1.92. Then FSEPSFITESYQTLHPISSDELLS, with 1.63; and FSEPSFITESYQTLHPISSHELLS, with 2.14. The value for FSEPSFITESYQTLHPISSCELLS was 1.8; that for FSEPSFITESYQTLHPISSFELLS was 1.77.
